The target in data set [1] is T1, PP1c (Oryctolagus cuniculus, UniProt P62143).
T1 construct: from tissue; host or cells: rabbit skeletal muscle (PP1G dissociated with LiBr)
The data set is described as follows: Phosphorylase phosphatase activity of PP1c. It counts as biochemical, rabbit. As for the experimental part:
(§1) A,B; Effects of M110-(M1-E309) (closed circles), M110-(M1-F38) (open circles) and M110-(D39-E309) (open triangles) on the MLC20 phosphatase […] and phosphorylase phosphatase (B) activities of PP1c were measured after incubating PP1c for 15 minutes at 30° C. with each fragment. The results are presented as a percentage of those obtained in experiments where the M110 fragments were omitted.
(§2) C,D; The effect of M110-(M1-A150) (open circles) and M110-(L24-Y496) (closed circles) on the MLC20 phosphatase (C) and phosphorylase phosphatase (D) activities of PP1c were measured as in A,B.
(B) The phosphorylase phosphatase activity of PP1c was assayed as in A in the presence or absence of 1 μM GM-(G63-T93) and 1.0 nM M110-(M1-E309). The results are presented (SEM for three experiments) as a percentage of the PP1c activity measured in the absence of GM-(63-T93), M110-(M1-F38) or M110-(M1-E309).
(§3) The myosin-associated form of PP1 (PP1M) was from chicken gizzard and the glycogen-associated form of PP1 (PP1G) from rabbit skeletal muscle. The β isoform of PP1c was released from PP1G by incubation for 2 hours in 2M LiBr, then purified by gel-filtration on a 30×1 cm column of Superose 12 (Pharmacia, Milton Keynes, U.K.) in the presence of 0.5M LiBr. Glycogen protein particles from rat liver were used as the source of hepatic PP1G Digoxygenin-labelled PP1c (γ1-isoform, hereafter termed PP1) was prepared as in [9]. GL was expressed in E. coli as a glutathione-S-transferase (GST) fusion protein [7], termed GST-GL. The catalytic subunit of PP2A from bovine heart (PP2AC) was provided by Dr R. MacKintosh in this Unit. The phosphorylatable myosin light chain (MLC20) and heavy meromyosin from chicken gizzard were a gift from Dr M. Ikebe (Case Western Reserve University, Cleveland, USA). Thrombin and benzamidine-Agarose were purchased from Sigma (Poole, UK).
(§4) ^32P-labelled rabbit skeletal muscle phosphorylase a (containing 1.0 mol phosphate per mol subunit) was prepared by phosphorylation with phosphorylase kinase, ^32P-labelled rabbit skeletal muscle glycogen synthase (containing 1.5 mol/mol subunit in the sites 3 region) was prepared by phosphorylation with glycogen synthase kinase-3 [24]). ^32P-labelled chicken gizzard MLC20 and ^32P-labelled chicken gizzard heavy meromyosin (containing 1.0 mol phosphate per mol subunit) were prepared by phosphorylation with smooth muscle myosin light chain kinase. The dephosphorylation of phosphorylase a (10 μM), glycogen synthase (1 μM) and MLC20 (1 μM) and heavy meromyosin (1 μM) was carried out as in [24]. One unit of activity (U) was that amount which released […] of phosphate in one minute.
(§5) PP1c was isolated from the rabbit skeletal muscle PP1-GM complex as described previously (Johnson et al, 1996). Glycogen particles isolated from rat liver (Schelling el al, 1988) served as the source of PP1-GL. The dephosphorylation of glycogen phosphorylase (10 μM) and the isolated MLC20 of smooth muscle myosin (1 μM) by PP1c was carried out as described previously (Cohen et al., 1988; Alessi et al., 1992).

Data set [2] deals with T1, PP1c. As to the kind of experiment: MLC20 (myosin P-light chain) phosphatase activity of PP1c. It counts as biochemical. The method, then:
as §1, §2
(A) The MLC20 phosphatase activity of PP1c was assayed after incubation for 15 minutes at 30° C. in the presence or absence of 1 μM GM-(G63-T93) and either 0.1 μM M110-(M1-F38) or 0.1 nM M110-(M1-E309).
(1-38, open circles) or M110[M1-K35] (1-35, closed circles) were incubated with PP1c for 15 min at 30° C. and reactions started with the ^32P-labelled MLC20 substrate. The results are expressed as a % of the activity determined in control incubations where the M110 peptides were omitted (100%). Similar results were obtained in three separate experiments.
as §3, §4, §5
^32P-labelled myosin P-light chains containing 1.0 mol phosphate per mol subunit was prepared by phosphorylation with smooth muscle myosin light chain kinase. The dephosphorylation of myosin P-light chain (1 μM) was carried out as in [4] and one unit of activity (U) was that amount which catalysed the release of 1 μmole of phosphate in one min. When assaying PP1M in immunoprecipitates from the myofibrillar extracts, the tubes were shaken continuously and 3 nM okadaic acid was included to inhibit any PP2A present.

T1 sequence (P62143 whole entry): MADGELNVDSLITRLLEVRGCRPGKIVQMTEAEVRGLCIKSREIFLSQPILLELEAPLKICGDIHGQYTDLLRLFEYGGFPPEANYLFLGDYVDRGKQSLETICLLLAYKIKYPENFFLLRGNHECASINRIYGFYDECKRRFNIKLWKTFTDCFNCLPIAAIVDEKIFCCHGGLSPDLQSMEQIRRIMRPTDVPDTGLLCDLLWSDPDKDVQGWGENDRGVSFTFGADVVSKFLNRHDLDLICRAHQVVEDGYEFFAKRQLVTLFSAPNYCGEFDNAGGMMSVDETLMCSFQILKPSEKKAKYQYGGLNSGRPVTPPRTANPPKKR

B1: M110-(M1-E309): rat aorta M110 fragment, residues 1-309, released from GST-fusion protein with thrombin (protein)
chain: GSPGMKMADAKQKRNEQLKRWIGSETDLEPPVVKRQKTKVKFDDGAVFLAACSSGDTDEVLKLLHRGADINYANVDGLTALHQACIDDNVDMVKFLVENGANINQPDNEGWIPLHAAASCGYLDIAEFLIGQGAHVGAVNSEGDTPLDIAEEEAMEELLQNEVNRQGVDIEAARKEEERIMLRDARQWLNSGHISDVRHAKSGGTALHVAAAKGYTEVLKLLIQAGYDVNIKDYDGWTPLHAAAHWGKEEACRILVDNLCDMETVNKVGQTAFDVADEDILGYLEELQKKQNLLHSEKRDKKSPLIESTANMEA
For the molecule B1, the “suppression of PP1c activity towards glycogen phosphorylase” value in data set [1] was “about 80%”. Also, in data set [2], the “concentration required to activate the MLC20 phosphatase activity maximally” value was found to be 0.1 nM and the “increase in PP1c activity towards MLC20 (maximal activation)” value was “about 3 fold”.

(Values after patent publication US6884600B1, “Protein phosphatase-1 catalytic subunit interactions” (Medical Research Council London, priority 1996, dated 2005).)
